This passage reports EC50 results from patent US20240252667A1 (ARMAGEN, published 2024).

Experiment [1] concerns the target T1, human insulin receptor extracellular domain (HIR ECD) (human, UniProt P06213 28-956, limits assumed).
T1 construct: extracellular domain; Plated on 96-well dishes in the ELISA
The experiment in a line: ELISA, HIR ECD plated; CHO-derived protein. As for the experimental part: The estimated MW of the hetero-tetrameric HIRMAb-HEXA fusion protein shown in FIG. 2 is 318 kDa, based on migration in the SDS-PAGE of the Western blot. The affinity of the fusion protein for the HIR extracellular domain (ECD) was determined with an ELISA. CHO cells permanently transfected with the HIR ECD were grown in serum free media (SFM), and the HIR ECD was purified with a wheat germ agglutinin affinity column, as previously described in Coloma et al. (2000) Pharm Res, 17:266-274. The HIR ECD was plated on Nunc-Maxisorb 96 well dishes and the binding of the HIR Ab, or the HIR Ab-HEXA fusion protein, to the HIR ECD was detected with a secondary antibody, followed by binding with an alkaline phosphatase detector reagent. […] The MW of the HIR Ab is 150 kDa, and the MW of the HIR Ab-fusion protein is 318 kDa.
The CHO line producing the HIR Ab-HEXA fusion protein was generated from CHO cells following 2 rounds of DC as described above. The accession cell line was propagated in a 2L shake flask in SFM on an orbital shaker and the CHO-derived fusion protein was purified by protein A affinity chromatography. […] The potency of the CHO-derived fusion protein as assessed with the HIR ECD binding ELISA, as described above.

In experiment [2] the target is T1, human insulin receptor extracellular …. The experiment in a line: ELISA, HIR ECD plated, secondary antibody and alkaline phosphatase detection; COS-derived protein. As for the experimental part: (§1) The COS-derived HIR Ab-HEXA fusion protein (also designated HIRMAb-HEXA), following purification with protein A affinity chromatography, was assessed for purity by reducing sodium dodecysulfate polyacrylamide gel electrophoresis (SDS-PAGE) as shown in FIG. 10. Only the HC and LC proteins are detected for either the HIRMAb alone or the HIRMAb-HEXA fusion protein. For the HIRMAb alone the higher molecular weight (MW) band is the HC and the lower MW band is the LC. For the HIRMAb-HEXA fusion protein, the higher MW band is the […]. The identity of the fusion protein was verified by Western blotting using primary antibodies to either human IgG (FIG. 11, left panel) or human HEXA (FIG. 11, right panel). The molecular weight (MW) of the HIRMAb-HEXA heavy and light chains are estimated by linear regression based on the migration of the MW standards. […] The affinity of the fusion protein for the HIR extracellular domain (ECD) was determined with an ELISA. […] The HIR ECD was plated on Nunc-Maxisorb 96 well dishes and the binding of the HIR Ab, or the HIR Ab-HEXA fusion protein, to the HIR ECD was detected with a secondary antibody, followed by binding with an alkaline phosphatase detector reagent. […]

Experiment [3] shares this target. The experiment in a line: ELISA, HIR ECD plated; COS-derived protein; normalised with MW 318 kDa. As for the experimental part:
as §1

The target is the same in experiment [4]. The experiment in a line: ELISA, recombinant HIR ECD plated, secondary antibody and alkaline phosphatase detection. On the procedure: (§2) The potency of the CHO-derived fusion protein was assessed with the HIR ECD binding ELISA. The affinity of the fusion protein for the HIR extracellular domain (ECD) was determined with an ELISA. Recombinant HIR ECD was plated on Nunc-Maxisorb 96 well dishes and the binding of the HIR Ab, or the HIR Ab-PPT1 fusion protein, to the HIR ECD was detected with a secondary antibody, followed by binding with an alkaline phosphatase detector reagent. […] The MW of the HIR Ab is 150 kDa, and the MW of the HIR Ab-fusion protein is 246 kDa.

Experiment [5] shares this target. The experiment in a line: ELISA, HIR ECD plated (HIR receptor assay).
The target is the same in experiment [6]. Description: ELISA, HIR ECD plated, biotinylated goat anti-human IgG detection.
Experiment [7] shares this target. The experiment in a line: ELISA, recombinant HIR ECD plated; normalised with MW 150 kDa. On the procedure:
as §2

For experiment [8] the target is unchanged. The experiment in a line: ELISA, HIR ECD plated; normalised with MW 150 kDa. On the procedure:
as §1

The target is the same in experiment [9]. The experiment in a line: ELISA, recombinant HIR ECD plated, secondary antibody and alkaline phosphatase detection; CHO-derived HIR Ab. On the procedure: (§3) The affinity of the fusion protein for the HIR extracellular domain (ECD) was determined with an ELISA. Recombinant HIR ECD was plated on Nunc-Maxisorb 96 well dishes and the binding of the HIR Ab, or the HIR Ab-ASM fusion protein, to the HIR ECD was detected with a secondary antibody, followed by binding with an alkaline phosphatase detector reagent. […] The MW of the HIR Ab is 150 kDa, and the MW of the HIR Ab-fusion protein is 320 kDa.

Experiment [10] shares this target. The experiment in a line: ELISA, HIR ECD plated, secondary antibody and alkaline phosphatase detection. As for the experimental part: as §1
Experiment [11] has the same target. Description: ELISA, recombinant HIR ECD plated, secondary antibody and alkaline phosphatase detection; CHO-derived protein. As for the experimental part: as §3, §2
The target is the same in experiment [12]. The experiment in a line: ELISA, recombinant HIR ECD plated; CHO-derived protein; normalised with MW 246 kDa. On the procedure:
as §2

The target is the same in experiment [13]. The experiment in a line: ELISA, recombinant HIR ECD plated; CHO-derived protein; normalised with MW 320 kDa. As for the experimental part:
as §3

“And” between values parts separate entries of the source, which are not always exact repeats. Identical values can stand only once.

B1: HIR Ab-HEXA fusion protein (antibody, human IgG1, human IgG3, kappa)
heavy: not shown
light: DIQMTQSPSSLSASLGERVSLTCRASQDIGGNLYWLQQGPDGTIKRLIYATSSLDSGVPKRFSGSRSGSDYSLTISSLESEDFVDYYCLQYSSSPWTFGGGTKMEIKRTVAAPSVFIFPPSDEQLKSGTASVVCLLNNFYPREAKVQWKVDNALQSGNSQESVTEQDSKDSTYSLSSTLTLSKADYEKHKVYACEVTHQGLSSPVTKSFNRGECSSSELKTPLGDTTHTSPRSPAPEFLGGPSSSLWPWPQNFQTSDQRYVLYPNNFQFQYDVSSAAQPGCSVLDEAFQRYRDLLFGSGSWPRPYLTGKRHTLEKNVLVVSVVTPGCNQLPTLESVENYTLTINDDQCLLLSETVWGALRGLETFSQLVWKSAEGTFFINKTEIEDFPRFPHRGLLLDTSRHYLPLSSILDTLDVMAYNKLNVFHWHLVDDPSFPYESFTFPELMRKGSYNPVTHIYTAQDVKEVIEYARLRGIRVLAEFDTPGHTLSWGPGIPGLLTPCYSGSEPSGTFGPVNPSLNNTYEFMSTFFLEVSSVFPDFYLHLGGDEVDFTCWKSNPEIQDFMRKKGFGEDFKQLESFYIQTLLDIVSSYGKGYVVWQEVFDNKVKIQPDTIIQVWREDIPVNYMKELELVTKAGFRALLSAPWYLNRISYGPDWKDFYIVEPLAFEGTPEQKALVIGGEACMWGEYVDNTNLVPRLWPRAGAVAERLWSNKLTSDLTFAYERLSHFRCELLRRGVQAQPLNVGFCEQEFEQT
notes: also called HIRMAb-HEXA; HIR Ab LC-HEXA + HIR Ab HC
As for B1, the EC50 in [1] is 0.122 mg/L; in experiment [2] it was 0.112 mg/L; in experiment [3], 0.35 nM.

B2: chimeric HIR Ab (antibody to the human insulin receptor) (antibody, human IgG1, kappa)
heavy: not shown
light: DIQMTQSPSSLSASLGERVSLTCRASQDIGGNLYWLQQGPDGTIKRLIYATSSLDSGVPKRFSGSRSGSDYSLTISSLESEDFVDYYCLQYSSSPWTFGGGTKMEIKRTVAAPSVFIFPPSDEQLKSGTASVVCLLNNFYPREAKVQWKVDNALQSGNSQESVTEQDSKDSTYSLSSTLTLSKADYEKHKVYACEVTHQGLSSPVTKSFNRGEC
notes: also called HIRMAb; chimeric HIRMAb
On to B2, for which the EC50 was 0.039 mg/L in experiment [4]; 0.25 nM in experiment [5]; 0.77 nM in experiment [6]; 0.32 nM and 0.26 nM in [7]; 0.23 nM in [8]; 0.047 mg/L in experiment [9]. In experiment [10], this molecule yielded an EC50 of 0.034 mg/L.

B3: HIR Ab-LL-PPT1 fusion protein (31-amino acid linker) (antibody, human IgG1, human IgG3, kappa)
heavy: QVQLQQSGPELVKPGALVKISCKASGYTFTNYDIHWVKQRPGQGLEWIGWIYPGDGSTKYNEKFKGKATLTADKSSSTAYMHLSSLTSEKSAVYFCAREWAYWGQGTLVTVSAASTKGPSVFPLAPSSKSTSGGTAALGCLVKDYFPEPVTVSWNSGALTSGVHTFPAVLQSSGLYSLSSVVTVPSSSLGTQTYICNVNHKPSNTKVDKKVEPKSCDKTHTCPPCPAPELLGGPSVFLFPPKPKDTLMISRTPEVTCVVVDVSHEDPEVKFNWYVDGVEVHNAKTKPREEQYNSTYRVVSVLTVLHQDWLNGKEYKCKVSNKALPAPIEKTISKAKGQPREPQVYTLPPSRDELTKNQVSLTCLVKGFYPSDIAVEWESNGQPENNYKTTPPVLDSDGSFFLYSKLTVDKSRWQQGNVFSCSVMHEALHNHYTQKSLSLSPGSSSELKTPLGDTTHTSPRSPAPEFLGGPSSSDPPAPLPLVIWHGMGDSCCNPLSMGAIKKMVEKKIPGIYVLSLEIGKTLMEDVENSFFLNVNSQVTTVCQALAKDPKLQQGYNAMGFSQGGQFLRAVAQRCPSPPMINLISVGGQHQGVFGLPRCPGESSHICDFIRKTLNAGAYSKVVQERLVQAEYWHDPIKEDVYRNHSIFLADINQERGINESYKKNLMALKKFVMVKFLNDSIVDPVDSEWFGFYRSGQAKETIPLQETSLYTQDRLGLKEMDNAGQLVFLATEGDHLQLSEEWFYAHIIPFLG
light: B2 light
notes: Hetero-tetramer, MW 246 kDa; The ELISA used CHO-derived protein; also called HIR Ab-PPT1; HIRMAb-PPT1
B3: the EC50 in [11] turned out to be 0.094 mg/L; in experiment [12] it was 0.38 nM.

B4: HIR Ab-ASM fusion protein (antibody, human IgG1, human IgG3, kappa)
heavy: not shown
light: DIQMTQSPSSLSASLGERVSLTCRASQDIGGNLYWLQQGPDGTIKRLIYATSSLDSGVPKRFSGSRSGSDYSLTISSLESEDFVDYYCLQYSSSPWTFGGGTKMEIKRTVAAPSVFIFPPSDEQLKSGTASVVCLLNNFYPREAKVQWKVDNALQSGNSQESVTEQDSKDSTYSLSSTLTLSKADYEKHKVYACEVTHQGLSSPVTKSFNRGECSSSELKTPLGDTTHTSPRSPAPEFLGGPSSSHPLSPQGHPARLHRIVPRLRDVFGWGNLTCPICKGLFTAINLGLKKEPNVARVGSVAIKLCNLLKIAPPAVCQSIVHLFEDDMVEVWRRSVLSPSEACGLLLGSTCGHWDIFSSWNISLPTVPKPPPKPPSPPAPGAPVSRILFLTDLHWDHDYLEGTDPDCADPLCCRRGSGLPPASRPGAGYWGEYSKCDLPLRTLESLLSGLGPAGPFDMVYWTGDIPAHDVWHQTRQDQLRALTTVTALVRKFLGPVPVYPAVGNHESTPVNSFPPPFIEGNHSSRWLYEAMAKAWEPWLPAEALRTLRIGGFYALSPYPGLRLISLNMNFCSRENFWLLINSTDPAGQLQWLVGELQAAEDRGDKVHIIGHIPPGHCLKSWSWNYYRIVARYENTLAAQFFGHTHVDEFEVFYDEETLSRPLAVAFLAPSATTYIGLNPGYRVYQIDGNYSGSSHVVLDHETYILNLTQANIPGAIPHWQLLYRARETYGLPNTLPTAWHNLVYRMRGDMQLFQTFWFLYHKGHPPSEPCGTPCRLATLCAQLSARADSPALCRHLMPDGSLPEAQSLWPRP
notes: Hetero-tetramer, MW 320 kDa; The ELISA used CHO-derived protein; also called HIRMAb-ASM; HIR Ab LC-ASM + HIR Ab HC
For the molecule B4, the EC50 in experiment [11] was determined as 0.299 mg/L; in [13], 0.93 nM.
